Several values for one entry are separate records, joined by “and”; a condition that tells them apart may be missing. Identical values can stand only once.
Assays:
H3K18DTU nucleosome = H3K18DTU nucleosome (UniProt P0C0S8); assay: native gel or EMSA; nucleosomes 100 nM, NAD+ 0 or 150 uM, SIRT7 0-1.6 uM; 10 mM Tris-HCl, 50 mM KCl, 1 mM DTT, pH 7.5; 25 °C, 30 min; 5% TBE native gel run on ice, GelRed
H3K36MTU nucleosome = H3K36MTU nucleosome (UniProt P0C0S8); assay: as above

## SIRT7 (wild type, full length) (from UniProt Q9NRC8 1-400) (enzyme)
H3K18DTU nucleosome
  stoichiometry N (SIRT7 per nucleosome): 1 and 2
H3K36MTU nucleosome
  stoichiometry N (SIRT7 per nucleosome): 1 and 2
